# Reference: the Immune Epitope Database (IEDB)
# Columns and labels:
# Assay in all cases: IEDB peptide-MHC binding, purified MHC/competitive/radioactivity; filed as Kd, often an IC50 or EC50 that approximates it; ≥ and ≤ were set here for values at or beyond the usual limits of such assays
# HLA-A*01:01 = target: HLA-A*01:01
# HLA-A*23:01 = target: HLA-A*23:01
# HLA-A*24:02 = target: HLA-A*24:02
# HLA-A*26:01 = target: HLA-A*26:01
# HLA-A*29:02 = target: HLA-A*29:02
# HLA-A*30:02 = target: HLA-A*30:02
# HLA-B*08:01 = target: HLA-B*08:01
# HLA-A*30:01 = target: HLA-A*30:01
# HLA-A*32:01 = target: HLA-A*32:01
# HLA-A*03:01 = conditions: source organism: Dengue virus 2 Peru/IQT2913/1996
# HLA-B*07:02 = target: HLA-B*07:02
# HLA-B*53:01 = conditions: source organism: Dengue virus 1 Brazil/97-11/1997
# HLA-B*44:03 = conditions: source organism: Dengue virus 4 Philippines/H241/1956
# [1] = source organism: SARS coronavirus Tor2
# [2] = source organism: Dengue virus 2 Peru/IQT2913/1996
# [3] = source organism: Mammarenavirus guanaritoense
# [4] = source organism: Mammarenavirus brazilense
# [5] = source organism: Dengue virus 2 Jamaica/1409/1983
# [6] = source organism: Dengue virus 3 Martinique/1243/1999
# [7] = source organism: Dengue virus 1 Brazil/97-11/1997
# [8] = source organism: Dengue virus 4 Dominica/814669/1981
# [9] = source organism: Mammarenavirus machupoense
# [10] = source organism: Mammarenavirus choriomeningitidis
# [11] = source organism: Lymphocytic choriomeningitis virus (strain Armstrong)
# [12] = source organism: Vaccinia virus WR
# [13] = source organism: Dengue virus 4 Philippines/H241/1956
# [14] = source organism: Mammarenavirus juninense
sequence,measurement,setting,value
IDETCEHEY,Kd,HLA-A*01:01; [1],11 µM
same,Kd,HLA-A*23:01; [1],≥ 77.8 µM
same,Kd,HLA-A*24:02; [1],≥ 77.6 µM
same,Kd,HLA-A*26:01; [1],≥ 32 µM
same,Kd,HLA-A*29:02; [1],2.85 µM
same,Kd,HLA-A*30:02; [1],0.162 µM
KWKNRLNAL,Kd,HLA-B*08:01; [2],0.157 µM
SAIFFTTSLF,Kd,HLA-A*23:01; [3],0.0808 µM
same,Kd,HLA-A*24:02; [3],0.452 µM
same,Kd,HLA-A*29:02; [3],0.0879 µM
SGALDTTSY,Kd,HLA-A*01:01; [1],≥ 80.6 µM
same,Kd,HLA-A*23:01; [1],≥ 77.8 µM
same,Kd,HLA-A*24:02; [1],≥ 77.6 µM
same,Kd,HLA-A*26:01; [1],≥ 55.5 µM
same,Kd,HLA-A*29:02; [1],0.168 µM
same,Kd,HLA-A*30:02; [1],0.0209 µM
AFRDVLVVL,Kd,HLA-A*01:01; [1],15.9 µM
same,Kd,HLA-A*23:01; [1],1.97 µM
same,Kd,HLA-A*24:02; [1],6.82 µM
same,Kd,HLA-A*26:01; [1],13 µM
same,Kd,HLA-A*29:02; [1],14 µM
same,Kd,HLA-A*30:02; [1],9.83 µM
ASLGPLRETY,Kd,HLA-A*01:01; [1],≥ 114 µM
same,Kd,HLA-A*23:01; [1],≥ 70 µM
same,Kd,HLA-A*24:02; [1],≥ 70.3 µM
same,Kd,HLA-A*26:01; [1],≥ 81.5 µM
same,Kd,HLA-A*29:02; [1],0.557 µM
same,Kd,HLA-A*30:02; [1],0.154 µM
PFWITAIYVF,Kd,HLA-A*01:01; [1],0.41 µM
same,Kd,HLA-A*23:01; [1],0.000189 µM
same,Kd,HLA-A*24:02; [1],0.00192 µM
same,Kd,HLA-A*26:01; [1],0.724 µM
same,Kd,HLA-A*29:02; [1],0.657 µM
same,Kd,HLA-A*30:02; [1],16 µM
EALRGFLLY,Kd,HLA-A*01:01; [4],3.73 µM
same,Kd,HLA-A*26:01; [4],1.58 µM
same,Kd,HLA-A*29:02; [4],0.117 µM
same,Kd,HLA-A*30:01; [4],5.72 µM
same,Kd,HLA-A*30:02; [4],2.27 µM
same,Kd,HLA-A*32:01; [4],≥ 60.2 µM
QFKDNVILL,Kd,HLA-A*01:01; [1],≥ 51.8 µM
same,Kd,HLA-A*23:01; [1],1.15 µM
same,Kd,HLA-A*24:02; [1],1.13 µM
same,Kd,HLA-A*26:01; [1],≥ 27.5 µM
same,Kd,HLA-A*29:02; [1],≥ 21.7 µM
same,Kd,HLA-A*30:02; [1],≥ 40 µM
LTHSINALI,Kd,HLA-A*23:01; [4],1.01 µM
same,Kd,HLA-A*24:02; [4],6.72 µM
same,Kd,HLA-A*29:02; [4],12.8 µM
LQLKGMSYSM,Kd,HLA-B*08:01; [5],0.07 µM
LTMKNKAWM,Kd,HLA-A*26:01; [6],≥ 45.3 µM
NPLTLTAAVL,Kd,HLA-B*08:01; [7],0.305 µM
MLIPKSYAG,Kd,HLA-B*08:01; [8],0.114 µM
QCGDPSSFDY,Kd,HLA-A*01:01; [9],1.4 µM
same,Kd,HLA-A*23:01; [9],≥ 28.8 µM
same,Kd,HLA-A*24:02; [9],≥ 70.3 µM
same,Kd,HLA-A*26:01; [9],≥ 69.7 µM
same,Kd,HLA-A*29:02; [9],5.83 µM
same,Kd,HLA-A*30:02; [9],3.31 µM
LGLNSRSTSL,Kd,HLA-B*08:01; [7],0.0399 µM
HMIVSRQEK,Kd,HLA-A*03:01,0.0212 µM
same,Kd,HLA-A*30:01; [2],0.0176 µM
QLQSPGVADY,Kd,HLA-A*01:01; [10],0.29 µM
same,Kd,HLA-A*26:01; [10],7.7 µM
same,Kd,HLA-A*29:02; [10],≥ 24.9 µM
same,Kd,HLA-A*30:01; [10],≥ 70.4 µM
same,Kd,HLA-A*30:02; [10],0.043 µM
same,Kd,HLA-A*32:01; [10],≥ 69.9 µM
GPMPVTVASA,Kd,HLA-B*07:02; [7],0.0533 µM
KCWLVTNGSY,Kd,HLA-A*01:01; [11],17.3 µM
same,Kd,HLA-A*23:01; [11],≥ 70 µM
same,Kd,HLA-A*24:02; [11],≥ 70.3 µM
same,Kd,HLA-A*26:01; [11],≥ 69.7 µM
same,Kd,HLA-A*29:02; [11],0.937 µM
same,Kd,HLA-A*30:02; [11],0.0274 µM
IMRNLTNLL,Kd,HLA-A*23:01; [3],6.15 µM
same,Kd,HLA-A*24:02; [3],≥ 33.1 µM
same,Kd,HLA-A*29:02; [3],0.305 µM
AYSFLPGVY,Kd,HLA-A*01:01; [1],6.52 µM
same,Kd,HLA-A*23:01; [1],7.4 µM
same,Kd,HLA-A*24:02; [1],0.0308 µM
same,Kd,HLA-A*26:01; [1],6.39 µM
same,Kd,HLA-A*29:02; [1],0.00452 µM
same,Kd,HLA-A*30:02; [1],0.000267 µM
GVIITWIGM,Kd,HLA-A*26:01; [5],15.7 µM
STRVEMGEA,Kd,HLA-A*30:01; [5],0.0139 µM
APHVGLGLET,Kd,HLA-B*07:02; [7],1.16 µM
RVLLLTPEV,Kd,HLA-A*30:01; [12],0.0486 µM
VSSPDAVTTY,Kd,HLA-A*01:01; [1],0.223 µM
same,Kd,HLA-A*23:01; [1],≥ 70 µM
same,Kd,HLA-A*24:02; [1],≥ 70.3 µM
same,Kd,HLA-A*26:01; [1],3.7 µM
same,Kd,HLA-A*29:02; [1],1.84 µM
same,Kd,HLA-A*30:02; [1],0.0113 µM
YTQMCDHRL,Kd,HLA-A*01:01; [7],5.71 µM
AGPFSQHNY,Kd,HLA-A*30:02; [13],0.472 µM
RPRWLDARV,Kd,HLA-B*07:02; [8],0.0017 µM
LLLMRTSWA,Kd,HLA-B*08:01; [6],0.0103 µM
RLKMDKLTL,Kd,HLA-B*08:01; [7],0.268 µM
KVRPTFAAG,Kd,HLA-A*30:01; [5],0.0044 µM
IPLQWIASA,Kd,HLA-B*07:02; [6],0.0884 µM
LEKRHVLGRL,Kd,HLA-B*08:01; [5],7.04 µM
IMAVLFVVTL,Kd,HLA-B*08:01; [13],5.42 µM
RLKSAVCYK,Kd,HLA-A*30:01; [12],0.000175 µM
HLIIQYPSV,Kd,HLA-A*30:01; [12],0.164 µM
STVQQLTKRF,Kd,HLA-A*26:01; [5],6.79 µM
PRRCMKPVIL,Kd,HLA-B*08:01; [5],2.47 µM
PYIGSRSQI,Kd,HLA-A*23:01; [14],0.312 µM
same,Kd,HLA-A*24:02; [14],1.08 µM
same,Kd,HLA-A*29:02; [14],≥ 21 µM
FFINFFNLL,Kd,HLA-B*08:01; [12],0.149 µM
FGIFTTNIW,Kd,HLA-B*53:01,0.168 µM
IILWFFNAM,Kd,HLA-B*08:01; [12],5.23 µM
NERRAWNFL,Kd,HLA-B*44:03,2.09 µM
YPFFRKLVL,Kd,HLA-B*08:01; [12],0.00586 µM
LARWGSFKK,Kd,HLA-A*30:01; source organism: Dengue virus 1 Singapore/S275/1990,0.0244 µM
